The source of these data is PMC4330345 (Nucleic Acids Research, 2015).

One data set concerns the target T1, HlyU_Vc wild type (Vibrio cholerae, UniProt P52695 1-108).
T1 sequence: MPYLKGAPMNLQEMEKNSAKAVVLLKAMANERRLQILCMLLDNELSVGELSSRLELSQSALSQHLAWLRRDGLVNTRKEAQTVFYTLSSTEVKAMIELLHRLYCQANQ
Put plainly: EMSA; EMSA: 1 nM probe, 1 mM Tris, 6 mM NaCl, 0.5 mM MgCl2, 0.01 mM EDTA, 0.1 mM CaCl2, 0.2% glycerol, 0.03 mg/ml salmon sperm DNA, 1 h, 4 C, pH not stated; footprint: ~10 nM DNA, 1 h, 4 C. The note with it: protein: recombinant; tags: N-terminal 6xHis removed with thrombin; chain copies: 2; label: radiolabel; blunt.

The data set “SEC” deals with the molecule itself. Put plainly: SEC. On the technique in general: In gel filtration, larger molecules generally elute earlier.
Data set [1] concerns the molecule itself. Put plainly: SEC; analytical gel filtration (AKTA prime Plus); 500 ug protein injected; 50 mM sodium phosphate, 200 mM sodium chloride, pH 6.8; molecular weight from marker proteins; self-association, dimer against monomer.

B1: O2 (dsDNA)
DNA 1: ATTAATCTTTAAATCAACTTTATAAATTAATTCAG
DNA 2: CTGAATTAATTTATAAAGTTGATTTAAAGATTAAT
On to B1, for which the binding result with HlyU_Vc wild type was “no binding”.

B2: O3 (dsDNA)
DNA 1: TTGGGGGGGGGGGGGGGACTAAATTAGTTCAAATT
DNA 2: AATTTGAACTAATTTAGTCCCCCCCCCCCCCCCAA
For the molecule B2, in the data set with HlyU_Vc wild type, the binding result is recorded as “no binding”.

B3: O1 (dsDNA)
DNA 1: TTTATAAATTAATTCAGACTAAATTAGTTCAAATT
DNA 2: AATTTGAACTAATTTAGTCTGAATTAATTTATAAA
On to B3, for which the binding result with HlyU_Vc wild type is reported as “binds”.

B4: HlyU of V. cholerae, wild type (natural protein)
chain: MPYLKGAPMNLQEMEKNSAKAVVLLKAMANERRLQILCMLLDNELSVGELSSRLELSQSALSQHLAWLRRDGLVNTRKEAQTVFYTLSSTEVKAMIELLHRLYCQANQ
notes: not shown: His6, N-terminal, cleaved
Take B4: the “stoichiometry N” value in the data set “SEC” stood at 2.

B5: HlyU_Vc L65A (natural protein)
chain: MPYLKGAPMNLQEMEKNSAKAVVLLKAMANERRLQILCMLLDNELSVGELSSRLELSQSALSQHAAWLRRDGLVNTRKEAQTVFYTLSSTEVKAMIELLHRLYCQANQ
notes: source: E. coli BL21 (DE3), purified (Ni-NTA); not shown: His6, N-terminal, cleaved
Regarding B5, in data set [1], the binding result is given as “binds”.

B6: HlyU_Vc Q63A (natural protein)
chain: MPYLKGAPMNLQEMEKNSAKAVVLLKAMANERRLQILCMLLDNELSVGELSSRLELSQSALSAHLAWLRRDGLVNTRKEAQTVFYTLSSTEVKAMIELLHRLYCQANQ
notes: as for B5
Take B6: in data set [1], the binding result is given as “binds”.

B7: HlyU_Vc N30A (natural protein)
chain: MPYLKGAPMNLQEMEKNSAKAVVLLKAMAAERRLQILCMLLDNELSVGELSSRLELSQSALSQHLAWLRRDGLVNTRKEAQTVFYTLSSTEVKAMIELLHRLYCQANQ
notes: as for B5
In the case of B7, the binding result in data set [1] is recorded as “binds”.

B8: HlyU_Vc S62A (natural protein)
chain: MPYLKGAPMNLQEMEKNSAKAVVLLKAMANERRLQILCMLLDNELSVGELSSRLELSQSALAQHLAWLRRDGLVNTRKEAQTVFYTLSSTEVKAMIELLHRLYCQANQ
notes: as for B5
Regarding B8, in data set [1], the binding result was “binds”.

B9: HlyU_Vc Q81A (natural protein)
chain: MPYLKGAPMNLQEMEKNSAKAVVLLKAMANERRLQILCMLLDNELSVGELSSRLELSQSALSQHLAWLRRDGLVNTRKEAATVFYTLSSTEVKAMIELLHRLYCQANQ
notes: as for B5
For the molecule B9, the binding result in data set [1] is “binds”.

B10: HlyU_Vc H64A (natural protein)
chain: MPYLKGAPMNLQEMEKNSAKAVVLLKAMANERRLQILCMLLDNELSVGELSSRLELSQSALSQALAWLRRDGLVNTRKEAQTVFYTLSSTEVKAMIELLHRLYCQANQ
notes: as for B5
With B10, the binding result in data set [1] was “binds”.

B11: HlyU_Vc K26A (natural protein)
chain: MPYLKGAPMNLQEMEKNSAKAVVLLAAMANERRLQILCMLLDNELSVGELSSRLELSQSALSQHLAWLRRDGLVNTRKEAQTVFYTLSSTEVKAMIELLHRLYCQANQ
notes: as for B5
Consider B11, for which the binding result in data set [1] is listed as “binds”.

B12: HlyU_Vc E49A (natural protein)
chain: MPYLKGAPMNLQEMEKNSAKAVVLLKAMANERRLQILCMLLDNELSVGALSSRLELSQSALSQHLAWLRRDGLVNTRKEAQTVFYTLSSTEVKAMIELLHRLYCQANQ
notes: as for B5
For B12, the binding result in data set [1] is given as “binds”.

B13: HlyU_Vc W67A (natural protein)
chain: MPYLKGAPMNLQEMEKNSAKAVVLLKAMANERRLQILCMLLDNELSVGELSSRLELSQSALSQHLAALRRDGLVNTRKEAQTVFYTLSSTEVKAMIELLHRLYCQANQ
notes: as for B5
With B13, the binding result in data set [1] is reported as “binds”.

B14: HlyU_Vc T90A (natural protein)
chain: MPYLKGAPMNLQEMEKNSAKAVVLLKAMANERRLQILCMLLDNELSVGELSSRLELSQSALSQHLAWLRRDGLVNTRKEAQTVFYTLSSAEVKAMIELLHRLYCQANQ
notes: as for B5
Turning to B14, the binding result in data set [1] is given as “binds”.

B15: HlyU_Vc K78A (natural protein)
chain: MPYLKGAPMNLQEMEKNSAKAVVLLKAMANERRLQILCMLLDNELSVGELSSRLELSQSALSQHLAWLRRDGLVNTRAEAQTVFYTLSSTEVKAMIELLHRLYCQANQ
notes: as for B5
Turning to B15, the binding result in data set [1] is on record as “binds”.

B16: HlyU_Vc Y85A (natural protein)
chain: MPYLKGAPMNLQEMEKNSAKAVVLLKAMANERRLQILCMLLDNELSVGELSSRLELSQSALSQHLAWLRRDGLVNTRKEAQTVFATLSSTEVKAMIELLHRLYCQANQ
notes: as for B5
As to B16, in data set [1], the binding result was “binds”.

B17: HlyU_Vc R69A (natural protein)
chain: MPYLKGAPMNLQEMEKNSAKAVVLLKAMANERRLQILCMLLDNELSVGELSSRLELSQSALSQHLAWLARDGLVNTRKEAQTVFYTLSSTEVKAMIELLHRLYCQANQ
notes: as for B5
On to B17, for which, in data set [1], the binding result is listed as “binds”.

B18: HlyU_Vc R32A (natural protein)
chain: MPYLKGAPMNLQEMEKNSAKAVVLLKAMANEARLQILCMLLDNELSVGELSSRLELSQSALSQHLAWLRRDGLVNTRKEAQTVFYTLSSTEVKAMIELLHRLYCQANQ
notes: as for B5
Regarding B18, the binding result in data set [1] is “binds”.

B19: HlyU_Vc R33A (natural protein)
chain: MPYLKGAPMNLQEMEKNSAKAVVLLKAMANERALQILCMLLDNELSVGELSSRLELSQSALSQHLAWLRRDGLVNTRKEAQTVFYTLSSTEVKAMIELLHRLYCQANQ
notes: as for B5
Turning to B19, the binding result in data set [1] is on record as “binds”.

B20: HlyU_Vc L98D (natural protein)
chain: MPYLKGAPMNLQEMEKNSAKAVVLLKAMANERRLQILCMLLDNELSVGELSSRLELSQSALSQHLAWLRRDGLVNTRKEAQTVFYTLSSTEVKAMIEDLHRLYCQANQ
notes: as for B5
For the molecule B20, the binding result in data set [1] is “binds”.

B21: HlyU_Vc A66S (natural protein)
chain: MPYLKGAPMNLQEMEKNSAKAVVLLKAMANERRLQILCMLLDNELSVGELSSRLELSQSALSQHLSWLRRDGLVNTRKEAQTVFYTLSSTEVKAMIELLHRLYCQANQ
notes: as for B5
Turning to B21, in data set [1], the binding result is listed as “binds”.

B22: HlyU_Vc R70A (natural protein)
chain: MPYLKGAPMNLQEMEKNSAKAVVLLKAMANERRLQILCMLLDNELSVGELSSRLELSQSALSQHLAWLRADGLVNTRKEAQTVFYTLSSTEVKAMIELLHRLYCQANQ
notes: as for B5
As for B22, in data set [1], the binding result is “binds”.

For orientation: stoichiometry N means the number of molecules, sites or subunits per partner or assembly.
